Reference: the DeepSol protein solubility set

Assay: soluble on expression in E. coli; label from the status in PepcDB or PDB records

Sequence | soluble on expression in E. coli
MAGDPMQQSDVISAAKKYMESIHQNDYTGHDIAHVYRVTALAKSIAENEGVNDTLVIELACLLHDTVDEKVVDANKQYVELKSFLSSLSLSTEDQEHILFIINNMSYRNGKNDHVTLSLEGQIVRDADRLDAIGAIGVARTFQFAGHFGEPMWTEHMSLDKINDDLVEQLPPSAIKHFFEKLLKLESLMHTDTAKMIAKERHDFMMMYLKQFFTEWNYHDLEHHHHHH | soluble
MPVLTSGQQERKSKQRKIRNSEYYDMEGTFDRLYAESKKDKTFNHLMEIIESEENIKLAYRTIKKNTGSDTSGVDKRTIADLAKLSEEEYVRLIRKQFSNYHPGPVRRVEIPKPNGKTRPLGIPTIVDRIVQQCILQVMEPICEAKFSENSNGFRPNRSAETAIAQCMRLIQVQHLYHVVDLDIKGFFDNISHTKLIRQIWALGIRDKKLLCIIKEMLKAPVVLPNGEKTYPARGTPQGGILSPLLANIVLNELDWWIASQWEEMPTKTKFKTRSNAQGTEIKSHAYRALRRSRLKEMHAVRYADDFKIFCATHEDAVRAYKATELWLKDRLGLEISPDKSKVVNLKRQYSDFLGFKLKVRKKGKKYVVRSHMSDKAYKKAHEKVSEEVKKLAYSSDDNAQFMQLQKYNSVVAGLHEYYCISTEVSHDFSRLAFSINKQLRNRLKGDLSKKGQLRNGFIKEKYGASRQMRFLHGRPVVPLGYVQSKNAQHKRKSINKYTVKGREQIHKNLAIDTATMLWLMRNPVKGRTIEYADNRISLYAAQYGKCAVTGIPMNSHDIHCHHKVPVSNGGSDEYANLILVSKAVHILIHASSEPTIEKYLKSLNLDNKQIEKLNKLRSMAEMPPIIL | not soluble
MGSDKIHHHHHHMKILLLNTSDARGGAAVAAMRLMETLQEAGAEVRMLVLNRNTTNPDIMALHSGRCGKTADKYRFLAERLHIYMCNGRDRSRLFHVSTALIGYDVSCHPWVRWADVIHLHWINQGFLSLRGLERLTRCGKSVVWTMHDMWPVTAICHHARECLRYRTECGACPQISSQKEKDLARLVWNRKSRVISLLRPTLIGCSHWLADLARQSALTDGLRIESIPNPIDTNLFAPGSRSDARRIMDLPTDRILLLFGAVQADDPRKGIYELSQAMKRLRERQPDLSKRIALVVFGSLRDEVRSLFPNYKLISIGYIREPSRMAELYRAADLFVIPSLEENLPNTIMEALSVGTPCVAFRVGGIPEMIVSGSTGYLAAFRDPSDLAEGITKTIALQETSPEAVASACRSFVLRHYSREVVSSRMLQLYRELL | not soluble
MTTLTAQQIACVYAWLAQLFSRELDDEQLTQIASAQMAEWFSLLKSEPPLTAAVNELENRIATLTVRDDARLELAADFCGLFLMTDKQAALPYASAYKQDEQEIKRLLVEAGMETSGNFNEPADHLAIYLELLSHLHFSLGEGTVPARRIDSLRQKTLTALWQWLPEFVARCRQYDSFGFYAALSQLLLVLVECDHQNR | soluble
SIGLTVEDLLSLRQVVSGNPEALAPLLENISARYPQLREHIMANPEVFVSMLLEA | soluble
MLKQPIQAQQLIELLKVHYGIDIHTAQFIQGGADTNAFAYQADSESKSYFIKLKYGYHDEINLSIIRLLHDSGIKEIIFPIHTLEAKLFQQLKHFKIIAYPFIHAPNGFTQNLTGKQWKQLGKVLRQIHETSVPISIQQQLRKEIYSPKWREIVRSFYNQIEFDNSDDKLTAAFKSFFNQNSAAIHRLVDTSEKLSKKIQPDLDKYVLCHSDIHAGNVLVGNEESIYIIDWDEPMLAPKERDLMFIGGGVGNVWNKPHEIQYFYEGYGEINVDKTILSYYRHERIVEDIAVYGQDLLSRNQNNQSRLESFKYFKEMFDPNNVVEIAFATEQLEHHHHHH | soluble
MSLKLVLHSAKRASAPYRVRIGLNLKGLAFELRPVDLVANAHQGEAYRALNAQALVPTLEVDGRPLTQSLAILEWLDETYPAHPLLPTDAFDRATVRAMAEIIACDIHPLNNLRILRQLTALEIDEPARNAWVARWIQDGFSALEPMIARHGQGYAFGDAPGLVDCLLVPQVFNANRFNVDLSPFPALEAAAAHARAHPAIAAAHPDHHPEEGHHHHHH | soluble
MSKYKIFVDGAVGTTGLGIFERLRAAKDIELLTLADEQRKDLKARLANVAAADLTLLCLPDTASKQLVLHAPPSAKICDTSTAHRVDPAWVYGFAELSGQFNNIQTATRVAIPGCHATGYIALLRPLIERHYLNADYPFTCHSLTGYSGGGKAMIADYQAPIRDDKFKAPRMYGLTLHHKHLAEMCAFTGSSNPPIFTPIVADYYSGMLVNVPLPLAAFTQEANDGEKISGILADYYREASLINVHYVNDLPTDGMVAANSLAGKDRLDIFVYANQTQVVLSAIFDNLGKGASGAAIQCMNIMLGRDQLADLHI | not soluble
MAAPVDLELKKAFAELQAKMVDTQQKVKLADLQIEQLSRVKKHANLTHGEITSLPESTRMFEGAGRMFILQSKGEISNQLLEKQKTADDKIKELEQKKTYLERSVKDAEDNIREMLMSRRAQ | not soluble
MEEHLSVMYERLRQELPKLFLQSHDYSLYSLDVEFINEILNIRTKGRTWYILSLTLCRFLAWNYFAHLRLEVLQLTRHPENWTLQARWRLVGLPVHLLFLRFYKRDKDEHYRTYDAYSTFYLNSSGLICRHRLDKLMPSHSPPTPVKKLLVGALVALGLSEPEPDLNLCSKP | not soluble
MGSDKIHHHHHHMSKAKRLMELMMVINRKRRFTVKELAEEFSVSSRTILRDLQELSELGVPLYSEVGPHGGYEVLNERVLPPIAFTEEEAVAIFFTVHALRHFSALPFQAESSSVNHKFYSYMPEDVKERIDQLKNRFDFETPMRPLATPYLPTLLDAAIKQNVVSIEYETSQEKTKREIQPIGVYARDGFWYCPSYCFLREDMRLFRCDRITYVTEQTTNNPLNFRHVHLGNWQSYMKQERNVLDFYVELSQDGVQRCVAEQWLKPHLHIRQDGSGWLEGPFPESEVPYFSYYFIGFGHDATVKQPVQLVTLIKKSLRELLSKYNGEKEGLPQKSF | not soluble
SSPSLLEPLLAMGFPVHTALKALAATGRKTAEEALAWLHDHCNDPSLDDPI | soluble
MAGDPMSLKSYSTPTYWQRVKVACQYLFPQLPITRLAGWLAEQKWGMVTHFIIRIFAKQYNVNLAEAEKTNPADYTTFNEFFLRPLKENARPINQDDQAVCLPADGKISELGQINENRLLQAKGHYFTLETLLANDEEMAESFKNGSFITTYLSPRDYHRVHMPCDATLKKMIYVPGDLFSVNSFLAEHIPNLFARNERVICEFETAFGPMVQILVGATITASISTVWAGIINPPRSKDVVEYNYQTTGETAIHLKKGDEMGAFRLGSTVINLFPQATVELVSHLQAGVETRMGERFAKIIKLEHHHHHH | soluble
MGSDKIHHHHHHMKNLEQRKSWYAEVAINYTSQQRKNWYNDVADAYNRTRPRYPQQLVSRVVELAQLPQNAAILEVGCGPGTATTAFAQLGFSMVCLEPSQNSSQLAQQNCSPYPNVEIINTSFEEWPLEPGKFDAVLAATSFHWVSPEIGYSKAADALKDHCSLILLWNMTPQPEYEVYQRLHEVYQAQAPTLERYEEQEAQEKHLRRFGKAVIDSGRFQDLVSEQLRCDVTYSIDDYLTLLSTLSPYIALDSQQRNSLFTSLRETLEKHCGSSVEISYLSAFHVAKKI | not soluble
MKPRNINNSLPLQPLVPDQENKNKKNEEKSVNPVKITMGSGLNYIEQESLGGKYLTHDLSIKIADISEEIIQQAILSAMSIYKFSITDDLMSMAVNELIKLTKIENNVDLNKFTTICTDVLSPRVTRHNKEKNKRHSTLLKNPLFNFH | not soluble
MSLIEDCLRSYRFIAIDTEFPSTLRETTQHATDEERYMDMSFSVDRAKLIQLGLTLFDINGRIGGTWEINFSDFGVDDARNEKSIEFLRRNGLDLRKIREEGIRIEGFFSEMFWMLKKTRRNITWVTFHGSYDIAYLLKGFTGEALPVTSERFSKAVARVLGSVYDLKVMAGRCEGLSSRLGLETLAHEFGLNRVGTAHHAGSNNELTAMVFAKVLSPFPLFLRFGSLELRTIESEAIV | soluble
